These results are taken from US20110311555A1.

The target of the assay is endogenous AP-1 (activator protein 1) in 293 cells, activated by MEKK1. Kind of assay: cell-based or functional assay. The note with it: scale: normalized promoter activity.

Regarding “Tcl1 R52H (pCMV5-TCL1 R52H construct) (from UniProt P56279 1-114)”, the AP-1 dependent transactivation (pAP-1-Luc reporter, MEKK1-activated, 293 cells), normalized promoter activity turned out to be 176.
